Test results taken from the Immune Epitope Database (IEDB).

Tests used:
Test in all cases: IEDB peptide-MHC binding, purified MHC/competitive/radioactivity; filed as Kd, often an IC50 or EC50 that approximates it; ≥ and ≤ were set here for values at or beyond the usual limits of such assays
HLA-A*31:01 = molecular target: HLA-A*31:01
HLA-A*33:01 = molecular target: HLA-A*33:01
HLA-A*03:01 = molecular target: HLA-A*03:01
HLA-A*68:01 = molecular target: HLA-A*68:01
HLA-A*11:01 = molecular target: HLA-A*11:01
[1] = source organism: Dengue virus 3 Martinique/1243/1999
[2] = source organism: SARS coronavirus Tor2
[3] = source organism: Vaccinia virus WR
[4] = source organism: Dengue virus 1 Brazil/97-11/1997
[5] = source organism: Dengue virus 4 Philippines/H241/1956
[6] = source organism: Dengue virus 2 Jamaica/1409/1983
[7] = source organism: Dengue virus 1 Singapore/S275/1990
[8] = source organism: Lassa virus Josiah
[9] = source organism: Dengue virus 4 Dominica/814669/1981

AIWYMWLGAR
Kd (HLA-A*31:01; [1]): 42.3 nM
Kd (HLA-A*33:01; [1]): 57.3 nM

ALAFHLTSR
Kd (HLA-A*03:01; [1]): 34.9 nM

AQPLPQRQK
Kd (HLA-A*31:01; [2]): ≥ 53200 nM
Kd (HLA-A*68:01; [2]): 3030 nM
Kd (HLA-A*11:01; [2]): 879 nM
Kd (HLA-A*33:01; [2]): ≥ 77700 nM
Kd (HLA-A*03:01; [2]): ≥ 23600 nM

ASGNLLLDK
Kd (HLA-A*31:01; [2]): 13500 nM
Kd (HLA-A*68:01; [2]): ≥ 38100 nM
Kd (HLA-A*11:01; [2]): 29.8 nM
Kd (HLA-A*33:01; [2]): ≥ 77700 nM
Kd (HLA-A*03:01; [2]): 694 nM

ATNNVFRLK
Kd (HLA-A*31:01; [2]): 2.57 nM
Kd (HLA-A*68:01; [2]): 11.6 nM
Kd (HLA-A*33:01; [2]): 6410 nM

AVHECFVKR
Kd (HLA-A*31:01; [2]): 39 nM
Kd (HLA-A*68:01; [2]): 79.6 nM
Kd (HLA-A*11:01; [2]): 440 nM
Kd (HLA-A*33:01; [2]): 1270 nM
Kd (HLA-A*03:01; [2]): 3320 nM

AVRYYDGNIY
Kd (HLA-A*31:01; [3]): ≥ 70000 nM
Kd (HLA-A*68:01; [3]): 3040 nM
Kd (HLA-A*11:01; [3]): 272 nM
Kd (HLA-A*33:01; [3]): ≥ 70000 nM
Kd (HLA-A*03:01; [3]): 2500 nM

AVVADLSAR
Kd (HLA-A*31:01; [3]): 26.6 nM
Kd (HLA-A*68:01; [3]): 6.45 nM
Kd (HLA-A*11:01; [3]): 51.8 nM
Kd (HLA-A*33:01; [3]): 712 nM
Kd (HLA-A*03:01; [3]): 141 nM

CAGVIEYAK
Kd (HLA-A*31:01; [3]): 2220 nM
Kd (HLA-A*68:01; [3]): 51.1 nM
Kd (HLA-A*11:01; [3]): 192 nM
Kd (HLA-A*33:01; [3]): 1190 nM
Kd (HLA-A*03:01; [3]): 988 nM

DFRNRYEDY
Kd (HLA-A*31:01; [3]): ≥ 77900 nM
Kd (HLA-A*68:01; [3]): 3700 nM
Kd (HLA-A*11:01; [3]): 7930 nM
Kd (HLA-A*33:01; [3]): 96.4 nM
Kd (HLA-A*03:01; [3]): 2770 nM

DLVKSSFVK
Kd (HLA-A*31:01; [3]): 94.2 nM
Kd (HLA-A*68:01; [3]): 77 nM
Kd (HLA-A*11:01; [3]): 127 nM
Kd (HLA-A*33:01; [3]): 905 nM
Kd (HLA-A*03:01; [3]): 1790 nM

DLVKSYSLIR
Kd (HLA-A*31:01; [3]): 173 nM
Kd (HLA-A*68:01; [3]): 1630 nM
Kd (HLA-A*11:01; [3]): 6720 nM
Kd (HLA-A*33:01; [3]): 579 nM
Kd (HLA-A*03:01; [3]): ≥ 10000 nM

DTRTPRAKR
Kd (HLA-A*33:01; [4]): 29.8 nM

EATARGARR
Kd (HLA-A*68:01; [4]): 12.5 nM
Kd (HLA-A*33:01; [4]): 36.7 nM

EGAWKHAQR
Kd (HLA-A*68:01; [5]): 115 nM

EILKINSVK
Kd (HLA-A*31:01; [3]): 2080 nM
Kd (HLA-A*68:01; [3]): 2.64 nM
Kd (HLA-A*11:01; [3]): 1540 nM
Kd (HLA-A*33:01; [3]): 549 nM
Kd (HLA-A*03:01; [3]): 713 nM

EMGANFKAER
Kd (HLA-A*33:01; [6]): 15.5 nM

ETKITFALKK
Kd (HLA-A*31:01; [3]): 8270 nM
Kd (HLA-A*68:01; [3]): 74.8 nM
Kd (HLA-A*11:01; [3]): 93.1 nM
Kd (HLA-A*33:01; [3]): 3200 nM
Kd (HLA-A*03:01; [3]): 1230 nM

FINFFNLLAK
Kd (HLA-A*31:01; [3]): 1820 nM
Kd (HLA-A*68:01; [3]): 6.53 nM
Kd (HLA-A*11:01; [3]): 0.273 nM
Kd (HLA-A*33:01; [3]): 427 nM
Kd (HLA-A*03:01; [3]): 8.96 nM

FLYLYALIY
Kd (HLA-A*31:01; [2]): 16900 nM
Kd (HLA-A*68:01; [2]): ≥ 44400 nM
Kd (HLA-A*11:01; [2]): 16300 nM
Kd (HLA-A*33:01; [2]): 17900 nM
Kd (HLA-A*03:01; [2]): 6630 nM

FSKNILKYY
Kd (HLA-A*31:01; [3]): 16300 nM
Kd (HLA-A*68:01; [3]): 5490 nM
Kd (HLA-A*11:01; [3]): ≥ 28900 nM
Kd (HLA-A*33:01; [3]): ≥ 77700 nM
Kd (HLA-A*03:01; [3]): ≥ 21200 nM

FSKSTSPTR
Kd (HLA-A*31:01; [3]): 20.6 nM
Kd (HLA-A*68:01; [3]): 9.78 nM
Kd (HLA-A*11:01; [3]): 12300 nM
Kd (HLA-A*33:01; [3]): 387 nM
Kd (HLA-A*03:01; [3]): ≥ 42200 nM

FSNTILLSDK
Kd (HLA-A*31:01; [3]): 1260 nM
Kd (HLA-A*68:01; [3]): 100 nM
Kd (HLA-A*11:01; [3]): 1.96 nM
Kd (HLA-A*33:01; [3]): ≥ 62600 nM
Kd (HLA-A*03:01; [3]): 25.5 nM

FVKKFGLCNY
Kd (HLA-A*31:01; [3]): 12200 nM
Kd (HLA-A*68:01; [3]): ≥ 37100 nM
Kd (HLA-A*11:01; [3]): 15100 nM
Kd (HLA-A*33:01; [3]): ≥ 45100 nM
Kd (HLA-A*03:01; [3]): ≥ 22800 nM

GFMRFFQLLR
Kd (HLA-A*31:01; [3]): 53.7 nM
Kd (HLA-A*68:01; [3]): 2410 nM
Kd (HLA-A*11:01; [3]): 937 nM
Kd (HLA-A*33:01; [3]): 86.3 nM
Kd (HLA-A*03:01; [3]): 526 nM

GLAMGIMILK
Kd (HLA-A*11:01; [7]): 69.8 nM
Kd (HLA-A*03:01; [7]): 20.7 nM

GLSETGFMR
Kd (HLA-A*31:01; [3]): 85.5 nM
Kd (HLA-A*68:01; [3]): 2130 nM
Kd (HLA-A*11:01; [3]): 2710 nM
Kd (HLA-A*33:01; [3]): 155 nM
Kd (HLA-A*03:01; [3]): 16300 nM

GLSSRATWAK
Kd (HLA-A*11:01; [5]): 164 nM
Kd (HLA-A*03:01; [5]): 35.2 nM

GSQLAKRFSR
Kd (HLA-A*31:01; source organism: Dengue virus 3 Singapore/8120/1995): 54.4 nM

GTSNWTGNY
Kd (HLA-A*31:01; [3]): ≥ 77900 nM
Kd (HLA-A*68:01; [3]): 3720 nM
Kd (HLA-A*11:01; [3]): 1.06 nM
Kd (HLA-A*33:01; [3]): ≥ 77700 nM
Kd (HLA-A*03:01; [3]): 11.5 nM

GVFTTNIWLK
Kd (HLA-A*68:01; [6]): 1.45 nM
Kd (HLA-A*11:01; [6]): 40.7 nM
Kd (HLA-A*03:01; [6]): 29.3 nM

HLKVALYRR
Kd (HLA-A*31:01; [3]): 0.197 nM
Kd (HLA-A*68:01; [3]): 67.1 nM
Kd (HLA-A*11:01; [3]): 9610 nM
Kd (HLA-A*33:01; [3]): 9.72 nM
Kd (HLA-A*03:01; [3]): 1190 nM

HSVFKGFSDK
Kd (HLA-A*31:01; [3]): 1420 nM
Kd (HLA-A*68:01; [3]): 52 nM
Kd (HLA-A*11:01; [3]): 13.5 nM
Kd (HLA-A*33:01; [3]): 14600 nM
Kd (HLA-A*03:01; [3]): 11.6 nM

ICKMPLPTK
Kd (HLA-A*31:01; [8]): 19800 nM
Kd (HLA-A*68:01; [8]): 17200 nM
Kd (HLA-A*11:01; [8]): 712 nM
Kd (HLA-A*33:01; [8]): ≥ 47400 nM
Kd (HLA-A*03:01; [8]): 891 nM

IGKMFESTYR
Kd (HLA-A*33:01; [9]): 176 nM

IICEDAMYY
Kd (HLA-A*31:01; [3]): ≥ 61400 nM
Kd (HLA-A*68:01; [3]): 3660 nM
Kd (HLA-A*11:01; [3]): 196 nM
Kd (HLA-A*33:01; [3]): ≥ 77700 nM
Kd (HLA-A*03:01; [3]): 2360 nM

IIMRCWLCWK
Kd (HLA-A*31:01; [2]): 14.4 nM
Kd (HLA-A*68:01; [2]): 0.903 nM
Kd (HLA-A*11:01; [2]): 0.426 nM
Kd (HLA-A*33:01; [2]): 198 nM
Kd (HLA-A*03:01; [2]): 1.65 nM

ILARWGSFKK
Kd (HLA-A*03:01; [7]): 9.69 nM

ILHAYCGIK
Kd (HLA-A*31:01; [3]): 2620 nM
Kd (HLA-A*68:01; [3]): 1860 nM
Kd (HLA-A*11:01; [3]): 582 nM
Kd (HLA-A*33:01; [3]): ≥ 33800 nM
Kd (HLA-A*03:01; [3]): 32.8 nM

ILSYIYSEIK
Kd (HLA-A*31:01; [3]): ≥ 37000 nM
Kd (HLA-A*68:01; [3]): 1240 nM
Kd (HLA-A*11:01; [3]): 62.1 nM
Kd (HLA-A*33:01; [3]): ≥ 70000 nM
Kd (HLA-A*03:01; [3]): 38.8 nM

ILTYNKTSK
Kd (HLA-A*31:01; [3]): 1620 nM
Kd (HLA-A*68:01; [3]): 442 nM
Kd (HLA-A*11:01; [3]): 1260 nM
Kd (HLA-A*33:01; [3]): ≥ 20100 nM
Kd (HLA-A*03:01; [3]): 45.8 nM

KAKIFTPEAR
Kd (HLA-A*31:01; [9]): 2.85 nM
